The text below walks through data of PMC9892613.

Experiment [1] deals with HIV-1 capsid protein p24 (His-p24) (HIV-1) (UniProt P12493). Nature of the experiment: BLI; in the same nanobody storage buffer (Fig. S5). Background: BLI is a label-free optical method that tracks binding on a fibre tip over time.
Experiment [2] has the same target. Nature of the experiment: ITC; nanobody (200 uM, syringe) titrated into His-p24 (12.5 uM, cell); 10 mM phosphate pH 8, 25 mM NaCl; 25.1 C; at least triplicate.

One may read the Kd as the free concentration of one partner at which half of the binding sites on the other are occupied at equilibrium, for simple one-to-one binding. Low readings indicate tighter binding, high ones weaker binding.

Where “and” joins values, the source holds several entries; their conditions need not be identical. Equal values may be shown once.

B1: nanobody 59H10 (VHH)
VHH: DVQLQESGGGLVQAGGSLRLSCAASGSISRFNAMGWWRQAPGKEREFVARIVKGFDPVLADSVKGRFTISIDSAENTLALQMNRLKPEDTAVYYCFAALDTAYWGQGTQVTVSS
For B1, in experiment [1], the equilibrium dissociation constant (Kd) amounted to 0.77 nM. The dH in experiment [2] was -3.9 kcal/mol.

B2: nanobody 37E7 (VHH)
VHH: DVQLQESGGGLVQAGGSLRLSCAASGSISRFNAMGWWRQAPGKEREFVARIVKGGYAVLADSVKGRFTISIDSAENTLALQMNRLKPEDTAVYYCFAALDTAYWGQGTQVTVSS
As to B2, in experiment [1], the dissociation constant (Kd) amounted to 9.6 nM. In addition, the dH in experiment [2] is -4.1 kcal/mol and -4.09 kcal/mol.
